# Experimental data reported in article PMC10723718 (PLOS Genetics, 2023).
# Legend:
# [1] = target: T1, GST-PhoP (M. tuberculosis, UniProt P71814 1-247); test: pull-down; settings: both partners purified
# T1 construct: PhoP, response regulator, M. tuberculosis; also called GST-tagged PhoP
# [2] = target: T2, His6-PhoP (M. tuberculosis, UniProt P71814 1-247); test: pull-down; settings: both partners purified
# T2 construct: PhoP, response regulator, M. tuberculosis, full length (247 amino acids); also called His-PhoP; not shown: His6, N-terminal, kept
Binder,binding result [1],binding result [2]
"His6-tagged PrrBC (cytoplasmic region of PrrB comprising C-terminal residues 200 to 446) (domain or fragment, PrrB, sensor kinase, M. tuberculosis, cytoplasmic domain residues 200-446 (247 amino acids); also called His6-PrrBC; His-PrrBC; not shown: His6, N-terminal, kept) ASEAIEIAEAMRGMLQRIWNEQNRTKEALASARDFAAVSSHELRTPLTAMRTNLEVLSTLDLPDDQRKEVLNDVIRTQSRIEATLSALERLAQGELSTSDDHVPVDITDLLDRAAHDAARIYPDLDVSLVPSPTCIIVGLPAGLRLAVDNAIANAVKHGGATLVQLSAVSSRAGVEIAIDDNGSGVPEGERQVVFERFSRGSTASHSGSGLGLALVAQQAQLHGGTASLENSPLGGARLVLRLPGPS",binds,–
"GST-PhoRC (domain or fragment, PhoR, sensor kinase, M. tuberculosis, cytoplasmic domain PhoRC, residues 193-485 (C-terminal 293 residues); also called GST-tagged PhoRC) TAAAIGAGQLDRRVPQWHPRTEVGRLSLALNGMLAQIQRAVASAESSAEKARDSEDRMRQFITDASHELRTPLTTIRGFAELYRQGAARDVGMLLSRIESEASRMGLLVDDLLLLARLDAHRPLELCRVDLLALASDAAHDARAMDPKRRITLEVLDGPGTPEVLGDESRLRQVLRNLVANAIQHTPESADVTVRVGTEGDDAILEVADDGPGMSQEDALRVFERFYRADSSRARASGGTGLGLSIVDSLVAAHGGAVTVTTALGEGCCFRVSLPRVSDVDQLSLTPVVPGPP",–,binds
